Assay results as given in publication PMC9696579 (Nature structural & molecular biology, 2022).

Biological target: mouse PKA-Cα (Mus musculus, UniProt P05132)
Experiment: Surface plasmon resonance
Conditions: SPR; mouse PKA-Cα; ATP and MgCl2 present

B1: SMO pCT WRR mutant: SMO pCT harboring the WRR mutation, GST-tagged for SPR (protein)
chain: KRIKKSKMIAKAFSKRRELLQNPGQELSFSMHTVSHDGPVAGLAFDLNEPSADVSSAAAQHVTKMVAAAGAILPQDVSVTPVATPVPPEEQAN
modifications: left off: GST, end not stated, kept
- binding to PKA-Cα: no PKA-C binding was observed
